Measured values taken from patent publication US20070243569.

What was measured:
[1] = tested on: T1, non-phosphorylated pKID-PKC
T1 sequence: DKNADGWIDAASLK

[2] = tested on: T2, non-phosphorylated pKID-Erk
T2 sequence: DKNADGWIDAASPA

[3] = tested on: T3, non-phosphorylated pKID-PKA
T3 sequence: DKNADGWIDRASLA

Substance: Protein Kinase A (PKA)
- extent of peptide phosphorylation by HPLC [1]: under identical conditions pKID-Erk (FIG. 9) and pKID-PKC (FIG. 10) showed no evidence of phosphorylation
- extent of peptide phosphorylation by HPLC [2]: under identical conditions pKID-Erk (FIG. 9) and pKID-PKC (FIG. 10) showed no evidence of phosphorylation
- extent of peptide phosphorylation by HPLC (conversion to phosphorylated peptide) [3]: pKID-PKA was enzymatically phosphorylated to >95% conversion in 12 hrs by PKA
- phosphorylation in HeLa nuclear extract with added PKA after 3 h, conversion by HPLC [3]: Phosphorylation proceeded at 75% conversion as measured by HPLC
